From patent US20260347496 (published 2026)
Values joined by “and” are separate entries in the source; they are usually repeats but may differ in a detail not shown here. Equal entries are not always repeated. Where two headings read alike, the source gives them in different places.

T1: CD24 biotinylated (ACRO CD4-H82E9) (human, UniProt P25063)
T1 chain: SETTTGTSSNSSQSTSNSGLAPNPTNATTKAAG

T2: CD24 (cell surface) (human)
T2 chain: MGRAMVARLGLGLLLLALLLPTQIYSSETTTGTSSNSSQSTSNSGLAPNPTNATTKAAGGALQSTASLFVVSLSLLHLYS


Assays:
[1] = molecular target: T1, CD24 biotinylated (ACRO CD4-H82E9); test: SPR
[2] = molecular target: T1, CD24 biotinylated (ACRO CD4-H82E9); test: SPR
CD24 (cell surface) [3] = molecular target: T2, CD24 (cell surface); test: FACS, NALM6
CD24 (cell surface) [4] = molecular target: T2, CD24 (cell surface); test: FACS, MDA-MB-468
CD24(27-56aa)-GST NEOX-4 [5] = molecular target: CD24(27-56aa)-GST NEOX-4 (human); test: ELISA
CD24(27-56aa)-GST NEOX-4 [6] = molecular target: CD24(27-56aa)-GST NEOX-4 (human); test: ELISA; remark: listed apart in the source
CD24(27-56aa)-GST NEOX-4 [7] = molecular target: CD24(27-56aa)-GST NEOX-4 (human); test: ELISA; remark: listed apart in the source

Sequence of CD24(27-56aa)-GST NEOX-4 (human) (chain, as listed by the source): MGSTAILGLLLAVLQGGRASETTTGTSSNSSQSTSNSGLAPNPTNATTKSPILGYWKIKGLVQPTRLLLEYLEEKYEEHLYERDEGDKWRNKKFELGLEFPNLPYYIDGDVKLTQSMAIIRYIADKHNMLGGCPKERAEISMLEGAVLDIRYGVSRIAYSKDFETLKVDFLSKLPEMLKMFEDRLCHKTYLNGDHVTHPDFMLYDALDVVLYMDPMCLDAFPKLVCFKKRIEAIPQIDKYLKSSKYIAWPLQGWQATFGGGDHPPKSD

Binder | Kd [1] | EC50 (CD24 (cell surface) [3]) | EC50 (CD24 (cell surface) [4]) | further results
huG14-124-3 (antibody, V domains shown) VH: EVQLVESGGGLVKPGGSLRLSCAASGLTFSNYWGNWVRQAPGKGLEWVALIRLYSDNYAIHYAESVKGRFTISRDDSKSTVYLQMNSLKTEDTAVYYCTTGTDYWGQGTTVTVSS VL: not shown | 1.52 nM |  |  | 
huG14-301 (antibody, V domains shown) VH: EVQLVESGGGLVKPGGSLRLSCAASGLTFSNYWGNWVRQAPGKGLEWVALIRLYSDNYAIHYAESVKGRFTISRDDSKSTVYLQMNSLKTEDTAVYYCTTGTDNWGQGTTVTVSS VL: DVVMTQSPLSLPVTLGQPASISCKSSHSLLYSNKRTYLNWLQQRPGQSPRRLIYLVSKLDSGVPDRFSGSGSGTDFTLKISRVEAEDLGVYYCIQGTYFPYTFGQGTKLEIK |  | 0.256 mg/L | 0.256 mg/L | Kd [2]: 7.58 nM
G14 (antibody, V domains shown) VH: EVKLEESGGGLVQPGGSMKLSCVASGLTFSNYWMNWVRQSPEKGLEWVALIRLYSDNYAIHYAESVKGRFTISRDDSKSSVYLQMNNLRAEDTGIYYCTTGTDYWGQGTTLTVSS VL: not shown |  | 7.3 mg/L and 18.5 mg/L |  | Kd [2]: 12.1 nM; EC50 (CD24(27-56aa)-GST NEOX-4 [5]): 0.0248 mg/L and 0.00988 mg/L; EC50 (CD24(27-56aa)-GST NEOX-4 [6]): 0.0366 mg/L; EC50 (CD24(27-56aa)-GST NEOX-4 [7]): 0.031 mg/L
huG14-125 (antibody, V domains shown) VH: EVQLVESGGGLVKPGGSLRLSCAASGLTFSNYWGNWVRQAPGKGLEWVALIRLYSDNYAIHYAESVKGRFTISRDDSKSTVYLQMNSLKTEDTAVYYCTTGTDYWGQGTTVTVSS VL: not shown |  | 0.443 mg/L | 0.684 mg/L | EC50 (CD24(27-56aa)-GST NEOX-4 [7]): 0.00619 mg/L
huG14-124-7 (antibody, V domains shown) VH: EVQLVESGGGLVKPGGSLRLSCAASGLTFSNYWGNWVRQAPGKGLEWVALIRLYSDNYAIHYAESVKGRFTISRDDSKSTVYLQMNSLKTEDTAVYYCTTGTDYWGQGTTVTVSS VL: not shown | 1.07 nM |  |  | 
huG14-216 (antibody, V domains shown) VH: EVQLVESGGGLVKPGGSLRLSCAASGLTFSNYWGNWVRQAPGKGLEWVALIRLYSDNYAIHYAESVKGRFTISRDDSKSTVYLQMNSLKTEDTAVYYCTTGTDYWGQGTTVTVSS VL: DVVMTQSPLSLPVTPGRPASISCKSSHSLLYSNGKTYLNWLLQKPGQSPQRLIYLVSKLDSGVPDRFSGSGSGTDFTLKISRVEAEDLGVYYCIQGTYFPYTFGQGTKLEIK |  | 0.431 mg/L | 0.676 mg/L | EC50 (CD24(27-56aa)-GST NEOX-4 [6]): 0.0044 mg/L
huG14-124 (antibody, V domains shown) VH: EVQLVESGGGLVKPGGSLRLSCAASGLTFSNYWGNWVRQAPGKGLEWVALIRLYSDNYAIHYAESVKGRFTISRDDSKSTVYLQMNSLKTEDTAVYYCTTGTDYWGQGTTVTVSS VL: not shown | 19 nM | 0.609 mg/L | 0.827 mg/L | EC50 (CD24(27-56aa)-GST NEOX-4 [7]): 0.00406 mg/L
huG14-230 (antibody, V domains shown) VH: EVQLVESGGGLVKPGGSLRLSCAASGLTFSNYWGNWVRQAPGKGLEWVALIRLYSDNYAIHYAESVKGRFTISRDDSKSTVYLQMNSLKTEDTAVYYCTTGTDNWGQGTTVTVSS VL: DVVMTQSPLSLPVTPGRPASISCKSSHSLLYSNGKTYLNWLLQKPGQSPQRLIYLVSKLDSGVPDRFSGSGSGTDFTLKISRVEAEDLGVYYCIQGTYFPYTFGQGTKLEIK |  | 0.35 mg/L | 0.63 mg/L | EC50 (CD24(27-56aa)-GST NEOX-4 [6]): 0.00889 mg/L
huG14-235 (antibody, V domains shown) VH: EVQLVESGGGLVKPGGSLRLSCAASGLTFSNYWGNWVRQAPGKGLEWVALIRLYSDNYAIHYAESVKGRFTISRDDSKSTVYLQMNSLKTEDTAVYYCTTGTDNWGQGTTVTVSS VL: DVVMTQSPLSLYVTPGRPASISCKSSHSLLYSNKRTYLNWLLQKPGQSPQRLIYLVSKLDSGVPDRFSGSGSGTDFTLKISRVEAEDLGVYYCIQGTYFPYTFGQGTKLEIK |  | 0.184 mg/L | 0.184 mg/L | Kd [2]: 2.69 nM
huG14-124-6 (antibody, V domains shown) VH: EVQLVESGGGLVKPGGSLRLSCAASGLTFSNYWGNWVRQAPGKGLEWVALIRLYSDNYAIHYAESVKGRFTISRDDSKSTVYLQMNSLKTEDTAVYYCTTGTDYWGQGTTVTVSS VL: not shown | 2.54 nM |  |  | 
huG14-124-1 (antibody, V domains shown) VH: EVQLVESGGGLVKPGGSLRLSCAASGLTFSNYWGNWVRQAPGKGLEWVALIRLYSDNYAIHYAESVKGRFTISRDDSKSTVYLQMNSLKTEDTAVYYCTTGTDYWGQGTTVTVSS VL: not shown | 2.08 nM |  |  | 
huG14-234 (antibody, V domains shown) VH: EVQLVESGGGLVKPGGSLRLSCAASGLTFSNYWGNWVRQAPGKGLEWVALIRLYSDNYAIHYAESVKGRFTISRDDSKSTVYLQMNSLKTEDTAVYYCTTGTDYWGQGTTVTVSS VL: DVVMTQSPLSLPVTPGRPASISCKSSHSLLYSNKKTYLNWLLQKPGQSPQRLIYLVSKLDSGVPDRFSGSGSGTDFTLKISRVEAEDLGVYYCIQGTYFPYTFGQGTKLEIK |  | 0.305 mg/L | 0.305 mg/L | Kd [2]: 3.62 nM
huG14-124-5 (antibody, V domains shown) VH: EVQLVESGGGLVKPGGSLRLSCAASGLTFSNYWGNWVRQAPGKGLEWVALIRLYSDNYAIHYAESVKGRFTISRDDSKSTVYLQMNSLKTEDTAVYYCTTGTDYWGQGTTVTVSS VL: not shown | 2.13 nM |  |  | 
huG14-124-9 (antibody, V domains shown) VH: EVQLVESGGGLVKPGGSLRLSCAASGLTFSNYWGNWVRQAPGKGLEWVALIRLYSDNYAIHYAESVKGRFTISRDDSKSTVYLQMNSLKTEDTAVYYCTTGTDYWGQGTTVTVSS VL: not shown | 9.77 nM |  |  | 
huG14-124-2 (antibody, V domains shown) VH: EVQLVESGGGLVKPGGSLRLSCAASGLTFSNYWGNWVRQAPGKGLEWVALIRLYSDNYAIHYAESVKGRFTISRDDSKSTVYLQMNSLKTEDTAVYYCTTGTDYWGQGTTVTVSS VL: not shown | 1.58 nM |  |  | 
huG14-124-8 (antibody, V domains shown) VH: EVQLVESGGGLVKPGGSLRLSCAASGLTFSNYWGNWVRQAPGKGLEWVALIRLYSDNYAIHYAESVKGRFTISRDDSKSTVYLQMNSLKTEDTAVYYCTTGTDYWGQGTTVTVSS VL: not shown | 10.6 nM |  |  | 
